In patent publication US20150056205A1, “STEROID SPARING AGENTS AND METHODS OF USING SAME” (BIOGEN IDEC MA INC., priority 2004, published 2015):

How the values were obtained:
α4 integrin = biological target: T1, α4 integrin (Homo sapiens, UniProt P13612); test: single dose pharmacokinetics and α4 integrin receptor saturation in clinical trials; type: in vivo
T1 construct: endogenous in cells; host or cells: circulating leukocytes of healthy volunteers and MS/IBD subjects (in vivo)
Method: The initial dose of natalizumab selected for clinical evaluation was based on non-clinical studies in the guinea pig Experimental Allergic Encephalitis (EAE) model. […] A single dose of 3 mg/kg appeared to provide serum concentrations of natalizumab associated with α4 integrin receptor blockade for up to approximately 3 weeks, and 6 mg/kg for about 6 weeks.
Natalizumab has been evaluated in all clinical trials to date by administration of dose adjusted for bodyweight. […] A single infusion of a higher dose of 6 mg/kg natalizumab produced α4 integrin saturation levels which were slightly higher and more prolonged (approximately 6 weeks).

[1] = test system: adult subjects with Crohn's disease (CD); test: maintenance of clinical response and remission in Crohn's Disease, six month regimen (Example 10); type: in vivo, human
Method: This experiment was a double-blind, placebo-controlled study of the efficacy, safety, and tolerability of natalizumab in maintaining clinical response and remission in Crohn's Disease.
Natalizumab, a humanized monoclonal IgG4 antibody to α4 integrin, was evaluated in a randomized, controlled study to determine the ability of a six month regimen to maintain clinical response/remission achieved in natalizumab-treated subjects in the […] induction of response/remission study.
Loss of response was defined as a CDAI≧220 and ≧70-point increase from baseline CDAI in the second study or use of rescue intervention. Maintenance of remission was also assessed.

[2] = test system: subjects with Crohn's disease; test: Phase III maintenance of response and remission study in Crohn's disease (Example 9, second study); type: in vivo, human
Method: A double-blind, placebo-controlled study of the efficacy, safety, and tolerability of intravenous Tysabri (natalizumab, 300 mg monthly) in maintaining clinical response and remission in patients with Crohn's Disease (CD) was performed. The objectives were to compare the ability of natalizumab versus placebo to maintain a clinical response in subjects with CD, to compare the ability of natalizumab versus placebo to maintain a clinical remission in subjects with CD, to compare the effects of natalizumab versus placebo on quality of life as measured by the Inflammatory Bowel Disease Questionnaire (IBDQ), and to compare the ability of natalizumab versus placebo to allow subjects to achieve withdrawal of oral steroids.
A Phase III, international, multicenter, randomized, double-blind, placebo-controlled, parallel-group study of subjects with previously active Crohn's disease (CD) (defined as moderately to severely active, CDAI≧220, <450) who have responded to treatment at Week 10 and maintained that response out to Week 12 in a first study (defined as a ≧70 point decrease in baseline CDAI) and whose disease is mildly active (defined as a CDAI score of <220) was undertaken.
Within this group there was a sub-population who had achieved remission (defined as a CDAI score of <150) at Week 10 of the first study. […] Subjects receiving concomitant medications for their CD were permitted to enroll providing that doses remained stable throughout their participation in the first study. All concomitant medications for CD remained stable for the duration of the 12-month treatment phase (up to Month 15) with the exception of oral steroids which were reduced according to a fixed algorithm). At the time this application was filed, only 9 months of data was available.
Natalizumab was administered 300 mg monthly for 12 infusions. The placebo was administered monthly for 12 infusions. Subjects were stratified according to their disease status (remission versus no remission, i.e., a CDAI<150 or ≧150), concomitant use of oral steroids and concomitant use of immunosuppressants.
Once randomized, subjects received their first infusion. Thereafter, they returned to the clinic on a monthly basis (where 1 month is defined as a 4-week period) for assessment and infusion. Introduction of any new medication for CD or a dose change to an existing concomitant medication for CD (with the exception of oral steroids withdrawn according to the fixed algorithm) […] unless deemed necessary for purposes of rescue intervention. Once rescued, such a subject was considered a treatment failure.
Eligible subjects at Week 10 in the first study were consented and enrolled into the second study, in order to allow subjects taking concomitant oral steroids to begin a steroid taper. Subjects who continued to meet the eligibility criteria at Week 12/Month 3, i.e., in time for their next, monthly infusion, were re-randomized and entered the treatment phase which will last up to 12 months in duration (i.e., up to Month 15). Subjects were male or female, eighteen years of age or older.
All subjects receiving oral steroids were required to undergo a taper immediately upon entry into the second study using the following algorithm. Subjects on doses equivalent to >10 mg of prednisolone will begin their taper at a rate of 5 mg every 7 days until they reach a dose of 10 mg. Subjects on doses equivalent to 10 mg of prednisolone were tapered at a rate of 2.5 mg every 7 days until they are completely withdrawn. Subjects taking budesonide were tapered at a rate of 3 mg every 3 weeks.
The ability of natalizumab to maintain mildly active disease (defined as a CDAI score of <220 and no use of rescue intervention) and remission (defined as a CDAI score of <150 and no use of rescue intervention) in subjects with CD was assessed. […]

primates = details: in vivo
Text: The inflammation was characterized by increased numbers of lymphocytes and plasma cells within the lamina propia with occasional crypt abscesses.

Substance: natalizumab
- time serum concentrations, receptor saturation and inhibition of cell adhesion are maintained (α4 integrin; 3 mg/kg infusion): 3-4 weeks
- natalizumab serum concentrations maintained (α4 integrin; 3 mg/kg infusion, healthy volunteers, subjects with MS and IBD): 2.5 to 3.0 µg/mL
- clearance, dependence on bodyweight (α4 integrin; human, in vivo): largely independent of bodyweight
- duration of serum concentrations associated with α4 integrin receptor blockade (α4 integrin; single dose of 3 mg/kg): approximately 3 weeks
- duration of serum concentrations associated with α4 integrin receptor blockade (α4 integrin; single dose of 6 mg/kg): about 6 weeks
- duration of α4 integrin saturation (α4 integrin; single infusion of 6 mg/kg): approximately 6 weeks
- subjects taking steroids in the first study who were withdrawn from steroids ([1]; 300 mg monthly, placebo 25%): 55%
- subjects who maintained clinical remission ([1]; at 6 months, 300 mg monthly, placebo 26%): 44%
- subjects continuing to meet the criteria for clinical response ([1]; at 6 months, ITT population, 300 mg monthly, placebo 29%): 61%
- tolerability ([1]; monthly administration for 6 months): well tolerated
- rates of serious and non-serious adverse events between treatment groups ([1]; versus placebo): No notable difference
- patients of the remission population who maintained a response (remission) ([2]; after 9 months, natalizumab remission population at three months, placebo 25.8%): 43.8%
- patients who maintained a response ([2]; after 9 months, natalizumab responder population at three months, placebo 28.8%): 61.3%
- Remission and not taking steroids, number (%) of subjects ([2]; month 9, of those who took steroids at first study baseline, 300 mg monthly, placebo 17 (22%)): 31 (46%)
- Not taking steroids, number (%) of subjects ([2]; month 9, of those who took steroids at first study baseline, 300 mg monthly, placebo 19 (25%)): 37 (55%)
- serious adverse events (SAEs) ([2]; placebo 8%): 7%
- tapering off steroids ([2]; second study): enabled subjects to be successfully tapered off steroids
- treated animals with minimal to mild lymphoplasmacytic inflammation of the mucosa of the cecum, colon, and/or rectum (primates): about half
